Measurements from patent US20190170753A1 (ICAHN SCHOOL OF MEDICINE AT MOUNT SINAI, published 2019).

Tests used:
Assay in all cases: peptide EIA, 2 ug/mL IgG;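 also: purified mouse IgG binding to individually well-coated synthetic peptides, detected with peroxidase anti-mouse IgG Fc and o-phenylenediamine, IgG incubated at least 1 h at room temperature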
HCV core peptide 19 = molecular target: T1, HCV core peptide 19 (hepatitis C virus, N-terminal biotin; C-terminal amide)
T1 construct: range 37-51
Procedure: (§1) The coated plates were kept dry in a sealed foil pouch and stored at <10 degrees C. until ready for use. A peptide coated plate for each test antibody was blocked using 3% BSA in PBS with 0.5% Tween 20. The blocked plates were washed with distilled water and a 2 ug/mL solution of purified IgG from each test sample diluted in BSA block solution was added to each peptide coated well of the blocked plate and allowed to incubate at room temperature for at least one hour. Following incubation the plates were washed with distilled water. A 200 ng/mL solution of peroxidase labeled F(ab′)2 fragment goat anti-mouse IgG Fc fragment specific (Jackson Immunoresearch) in BSA block solution was added to all wells and incubated at room temperature for 30 minutes. The plates were washed with distilled water and o-phenylenediamine substrate was used as the chromagen to generate signal. Plates were read at 492 nm and the results were analyzed.

HCV core peptide 50 = molecular target: T2, HCV core peptide 50 (hepatitis C virus, HELM PEPTIDE1{[O=C1N[C@H]2[C@H](CS[C@H]2CCCCC(=O)[*:2])N1].S.G.S.G.S.P.R.G.S.R.P.S.W.G.P.T.D.P.R.[am]}$$$$V2.0; SMILES …)
T2 construct: also called aa 99-113
T2 peptide: SGSGSPRGSRPSWGPTDPR
Procedure: as §1

HCV core peptide 9 = molecular target: T3, HCV core peptide 9 (hepatitis C virus, N-terminal biotin; C-terminal amide)
T3 construct: range 17-31
Procedure: as §1

HCV core peptide 16 = molecular target: T4, HCV core peptide 16 (hepatitis C virus, N-terminal biotin; C-terminal amide)
T4 construct: range 31-45
Procedure: as §1

HCV core peptide 27 = molecular target: T5, HCV core peptide 27 (hepatitis C virus, N-terminal biotin; C-terminal amide)
T5 construct: range 53-67
Procedure: as §1

HCV core peptide 42 = molecular target: T6, HCV core peptide 42 (hepatitis C virus, N-terminal biotin; C-terminal amide)
T6 construct: range 83-97
Procedure: as §1

HCV core peptide 29 = molecular target: T7, HCV core peptide 29 (hepatitis C virus, N-terminal biotin; C-terminal amide)
T7 construct: range 57-71
Procedure: as §1

HCV core peptide 25 = molecular target: T8, HCV core peptide 25 (hepatitis C virus, N-terminal biotin; C-terminal amide)
T8 construct: range 49-63
Procedure: as §1

HCV core peptide 68 = molecular target: T9, HCV core peptide 68 (hepatitis C virus, N-terminal biotin; C-terminal amide)
T9 construct: range 135-149
Procedure: as §1

HCV core peptide 76 = HCV core peptide 76 (hepatitis C virus, N-terminal biotin; C-terminal amide)
Procedure: as §1

HCV core peptide 78 = HCV core peptide 78 (hepatitis C virus, N-terminal biotin; C-terminal amide)
Procedure: as §1

HCV core peptide 75 = molecular target: T10, HCV core peptide 75 (hepatitis C virus, N-terminal biotin; C-terminal amide)
T10 construct: range 149-163
Procedure: as §1

HCV core peptide 72 = molecular target: T11, HCV core peptide 72 (hepatitis C virus, N-terminal biotin; C-terminal amide)
T11 construct: range 143-157
Procedure: as §1

HCV core peptide 8 = molecular target: T12, HCV core peptide 8 (hepatitis C virus, N-terminal biotin; C-terminal amide)
T12 construct: range 15-29
Procedure: as §1

HCV core peptide 46 = HCV core peptide 46 (hepatitis C virus, N-terminal biotin; C-terminal amide)
Procedure: as §1

HCV core peptide 35 = molecular target: T13, HCV core peptide 35 (hepatitis C virus, N-terminal biotin; C-terminal amide)
T13 construct: range 69-83
Procedure: as §1

HCV core peptide 44 = HCV core peptide 44 (hepatitis C virus, N-terminal biotin; C-terminal amide)
Procedure: as §1

HCV core peptide 11 = molecular target: T14, HCV core peptide 11 (hepatitis C virus, N-terminal biotin; C-terminal amide)
T14 construct: range 21-35
Procedure: as §1

HCV core peptide 47 = HCV core peptide 47 (hepatitis C virus, N-terminal biotin; C-terminal amide)
Procedure: as §1

HCV core peptide 2 = molecular target: T15, HCV core peptide 2 (hepatitis C virus, N-terminal biotin; C-terminal amide)
T15 construct: range 3-17
Procedure: as §1

HCV core peptide 84 = HCV core peptide 84 (hepatitis C virus, N-terminal biotin; C-terminal amide)
Procedure: as §1

HCV core peptide 3 = molecular target: T16, HCV core peptide 3 (hepatitis C virus, N-terminal biotin; C-terminal amide)
T16 construct: range 5-19
Procedure: as §1

HCV core peptide 80 = HCV core peptide 80 (hepatitis C virus, N-terminal biotin; C-terminal amide)
Procedure: as §1

HCV core peptide 51 = molecular target: T17, HCV core peptide 51 (hepatitis C virus, HELM PEPTIDE1{[O=C1N[C@H]2[C@H](CS[C@H]2CCCCC(=O)[*:2])N1].S.G.S.G.R.G.S.R.P.S.W.G.P.T.D.P.R.R.R.[am]}$$$$V2.0; SMILES …)
T17 peptide: SGSGRGSRPSWGPTDPRRR
Procedure: as §1

HCV core peptide 40 = molecular target: T18, HCV core peptide 40 (hepatitis C virus, N-terminal biotin; C-terminal amide)
T18 construct: range 79-93
Procedure: as §1

HCV core peptide 56 = HCV core peptide 56 (hepatitis C virus, N-terminal biotin; C-terminal amide)
Procedure: as §1

HCV core peptide 26 = molecular target: T19, HCV core peptide 26 (hepatitis C virus, N-terminal biotin; C-terminal amide)
T19 construct: range 51-65
Procedure: as §1

HCV core peptide 70 = HCV core peptide 70 (hepatitis C virus, N-terminal biotin; C-terminal amide)
Procedure: as §1

HCV core peptide 17 = molecular target: T20, HCV core peptide 17 (hepatitis C virus, N-terminal biotin; C-terminal amide)
T20 construct: range 33-47
Procedure: as §1

HCV core peptide 53 = molecular target: T21, HCV core peptide 53 (hepatitis C virus, HELM PEPTIDE1{[O=C1N[C@H]2[C@H](CS[C@H]2CCCCC(=O)[*:2])N1].S.G.S.G.P.S.W.G.P.T.D.P.R.R.R.S.R.N.L.[am]}$$$$V2.0; SMILES …)
T21 peptide: SGSGPSWGPTDPRRRSRNL
Procedure: as §1

HCV core peptide 65 = HCV core peptide 65 (hepatitis C virus, N-terminal biotin; C-terminal amide)
Procedure: as §1

HCV core peptide 33 = molecular target: T22, HCV core peptide 33 (hepatitis C virus, N-terminal biotin; C-terminal amide)
T22 construct: range 65-79
Procedure: as §1

Measured: OD (A492 nm)

B1: Neo4 mouse monoclonal antibody (antibody, V domains shown)
VH: QIQLKESGPAVIKPSQSLSLTCIVSGFSITSSVYCWQWIRQPPGKGLEWMGRICYDGSVDYSPSITSRGTISRDTSLNKVFFQLSSVTNEDTAMYYCSRENHIDYYDTTYPSFDVWGAGTTVTVSS
VL: DIVLTQSPASLIVSLGQRATISCRASKSVNEYGYTYMHWYQQKPGLPPKLLIYLASNLDSGVPARFSGSGSGTDFTLNIHPVEEEDAATYYCQHSRELPYTFGGGTKLEIKR
notes: Mouse hybridoma antibody, isotype IgG1, purified with Protein G; also called HCV Neo4
0.1 OD: HCV core peptide 75
0.96 OD: HCV core peptide 51 | HCV core peptide 53
1.03 OD: HCV core peptide 50
0.06 OD: HCV core peptide 16 | HCV core peptide 78 | HCV core peptide 8 | HCV core peptide 46 | HCV core peptide 2
0.05 OD: HCV core peptide 19 | HCV core peptide 9 | HCV core peptide 76 | HCV core peptide 44 | HCV core peptide 11 | HCV core peptide 47 | HCV core peptide 84 | HCV core peptide 3 | HCV core peptide 80 | HCV core peptide 40 | HCV core peptide 33
0.04 OD: all other assays above
